Values quoted from earlier work, collected in patent publication US6329011A, “Antimicrobial agent against acid-resistant and heat-resistant bacteria” (Director General of Shikoku National Agricultural …, priority 2000, dated 2001).

Legend:
[1] = heated under acidic conditions at 100° C. for 10 min.
guinea pigs = conditions: one oral administration, 103 to 229 mg/kg body weight, observation for 7 days

thionin
antimicrobial activity after heating [1]: does not lose antimicrobial activity | degradation by digestive enzymes such as trypsin (trypsin): degraded rapidly | abnormalities after oral administration (guinea pigs): did not result in detection of any abnormalities
